According to patent publication US20160053025A1 (SAMSUNG ELECTRONICS, published 2016):
Changes are numbered by the printed parent chain.

Experiments:
Assay in all cases: ELISA, antibody coated, FLAG-tagged mutant Ang2 RBD detected with anti-FLAG-HRP
[1] = molecular target: T1, Ang2 RBD N421A, FLAG-tagged (human, UniProt O15123 281-496, limits assumed)
T1 chain: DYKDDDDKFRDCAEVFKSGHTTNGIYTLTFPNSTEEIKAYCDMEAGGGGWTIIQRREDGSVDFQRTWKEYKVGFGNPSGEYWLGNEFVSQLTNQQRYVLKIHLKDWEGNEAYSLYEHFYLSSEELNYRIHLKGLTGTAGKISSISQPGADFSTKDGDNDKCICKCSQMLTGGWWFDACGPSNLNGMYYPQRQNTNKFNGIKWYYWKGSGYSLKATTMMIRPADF
Description: (§1) To verify the epitope (or specific binding site) of the anti-Ang2 antibody prepared in Reference Example 2.3, an ELISA was performed using a recombinant protein where a receptor binding domain (RBD) of Ang2 protein in the form of being tagged with Flag was mutated by artificial means.
(§2) Each well of a 96-well MaxiSorp™ flat-bottom plate (Nunc) was coated with 50 ul (microliter) of 1000 nM antibody. Then, the plate was washed five times with 0.05% (v/v) Tween-20-containing PBS (PBST) and blocked with 1% (v/v) BSA-containing PBS at a room temperature for 2 hours. 250 ng of each mutant Ang2 protein obtained by substituting S417, Q418, P419, N421, 1434, D448, A449, P452, Y460, N467, K468, or F469 residue of Ang2 protein tagged with a FLAG sequence ([…], Sigma) at its N-terminal with alanine was added to each well of the plate, which was then allowed to react at a room temperature for 2 hours.
(§3) Finally, 50 ul of TMB substrates (Cell signaling) was added to each well of the plate to induce color development at a room temperature for 3 min. and the reaction was ceased by the addition of 50 ul of Stop solution (Cell signaling) and then, OD450 values were measured on a plate reader (Molecular Devices). By comparing binding affinities with mutated Ang2 to those of unmutated Ang2, each epitope of Ang2 antibodies was identified. The obtained measurement results of the binding affinities (%) with mutant Ang2 against the binding affinity with the native Ang2 are shown in the following Table 13.

[2] = molecular target: T2, Ang2 RBD P419A, FLAG-tagged (human, UniProt O15123 281-496, limits assumed)
T2 chain: T1 chain with P147A, A149N
Description: as §1, §2, §3

[3] = molecular target: T3, Ang2 RBD I434A, FLAG-tagged (human, UniProt O15123 281-496, limits assumed)
T3 construct: Printed as '1434', read as I434
T3 chain: T1 chain with A149N, I162A
Description: as §1, §2, §3

[4] = molecular target: T4, Ang2 RBD P452A, FLAG-tagged (human, UniProt O15123 281-496, limits assumed)
T4 chain: T1 chain with A149N, P180A
Description: as §1, §2, §3

[5] = molecular target: T5, Ang2 RBD F469A, FLAG-tagged (human, UniProt O15123 281-496, limits assumed)
T5 chain: T1 chain with A149N, F197A
Description: as §1, §2, §3

[6] = molecular target: T6, Ang2 RBD D448A, FLAG-tagged (human, UniProt O15123 281-496, limits assumed)
T6 chain: T1 chain with A149N, D176A
Description: as §1, §2, §3

[7] = molecular target: T7, Ang2 RBD K468A, FLAG-tagged (human, UniProt O15123 281-496, limits assumed)
T7 chain: T1 chain with A149N, K196A
Description: as §1, §2, §3

B1: SAIT-ANG2-AB-m10D6 (antibody, V domains shown)
VH: DVQLQESGPDLVKPSQSLSLTCTVTGYSITSDYAWNWIRQFPGNKLEWMGYINYSGNTDYNPSLKSRSSITRDTSKNQFFLQLNSVTTGDTATYYCARGNFEGAMDYWGQGTSVTVSS
VL: SIVMTQTPKFLLVSAGDRVTITCKASQSVSNDVAWYQQKPGQSPKLLIYYASNRYPGVPDRFTGSGYGTDFTFTISTVQAEDLAVYFCQQDYSSPWTFGGGTKLEIK
notes: Mouse monoclonal antibody purified from a hybridoma (KCLRF-BP-00295); it is not applied here; also called mouse antibody 10D6; 10D6 antibody
- binding affinity (%) with mutant Ang2 against the binding affinity with the native Ang2 [1]: 109%
- binding affinity (%) with mutant Ang2 against the binding affinity with the native Ang2 [2]: 41.1%
- binding affinity (%) with mutant Ang2 against the binding affinity with the native Ang2 [3]: 109%
- binding affinity (%) with mutant Ang2 against the binding affinity with the native Ang2 [4]: 102%
- binding affinity (%) with mutant Ang2 against the binding affinity with the native Ang2 [5]: 109%
- binding affinity (%) with mutant Ang2 against the binding affinity with the native Ang2 [6]: 105%
- binding affinity (%) with mutant Ang2 against the binding affinity with the native Ang2 [7]: 110%
